From patent US20240059797A1 (GRITSTONE BIO, published 2024)
Substitutions are numbered along the chain they refer to.

B1: G7(2C02) Fab (Fab, V domains shown)
VH: QVQLVQSGAEVKKPGASMKVSCKASGYTFTTDGISWVRQAPGQGLEWMGRIYPHSGYTEYAKKFKGRVTMTRDTSTSTVYMELSSLRSEDTAVYYCARQDGGAFAFDIWGQGTMVTVSS
VL: DIQMTQSPSSLSASVGDRVTITCQASQDIFKYLNWYQQKPGKAPKLLIYAASTLQSGVPSRFSGSGSGTDFTLTISSLQPEDFATYYCQQSYSTPPTFGQGTRLEIK
notes: Fab
B2: G7(1A03) Fab (Fab, V domains shown)
VH: QVQLVQSGAEVKKPGASVKVSCKASGYTFTSQYMHWVRQAPGQGLEWMGWISPNNGDTNYAQKFQGRVTMTRDTSTSTVYMELSSLRSEDTAVYYCARELGYYYGMDVWGQGTTVTVSS
VL: DIQMTQSPSSLSASVGDRVTITCRASQSISTWLAWYQQKPGKAPKLLIYYASSLQSGVPSRFSGSGSGTDFTLTISSLQPEDFATYYCQQSYSFPYTFGQGTKVEIK
notes: Fab
B3: G7(2E09) Fab (Fab, V domains shown)
VH: QVQLVQSGAEVKKPGSSVKVSCKASRYTFTSYDINWVRQAPGQGLEWMGRIIPMLNIANYAPKFQGRVTITADESTSTAYMELSSLRSEDTAVYYCARALIFGVPLLPYGMDVWGQGTTVTVSS
VL: not shown
notes: Fab
B4: G8(1C11) Fab (Fab, V domains shown)
VH: QVQLVQSGAEVKKPGASVKVSCKASGGTLSSYPINWVRQAPGQGLEWMGWISTYSGHADYAQKLQGRVTMTRDTSTSTVYMELSSLRSEDTAVYYCARSYDYGDYLNFDYWGQGTLVTVSS
VL: B1 VL with F30S, K31N, T53S, T94I, Q100G, R103K, L104V, E105D
notes: Fab; also called G8-P1C11
B5: G8(2C10) Fab (Fab, V domains shown)
VH: QVQLVQSGAEVKKPGASVKVSCKASGYTFTSYYMHWVRQAPGQGLEWMGWINPYSGGTNYAQKFQGRVTMTRDTSTSTVYMELSSLRSEDTAVYYCAKGGIYYGSGSYPSWGQGTLVTVSS
VL: B2 VL with S28D, I29V, Y50A, Y92H, F94T, Y96Q
notes: Fab
B6: G8(2E04) Fab (Fab, V domains shown)
VH: QVQLVQSGAEVKKPGSSVKVSCKASGGTFSSYGVSWVRQAPGQGLEWMGWISPYSGNTDYAQKFQGRVTITADESTSTAYMELSSLRSEDTAVYYCARGLYYMDVWGKGTTVTVSS
VL: B2 VL with T31S, Y50D, S53N, Q55E, S56T, F94T, Y96L, Q100G, V104L
notes: Fab
B7: G10(5C08) scFv (scFv, V domains shown)
VH: QVQLVQSGAEVKKPGASVKVSCKASGYNFTGYYMHWVRQAPGQGLEWMGIIAPSDGSTNYAQKFQGRVTMTRDTSTSTVYMELSSLRSEDTAVYYCARETGDDAFDIWGQGTMVTVSS
VL: not shown
B8: G10(4G06) scFv (scFv, V domains shown)
VH: QVQLVQSGAEVKKPGASVKVSCKASGYTLSYYYMHWVRQAPGQGLEWMGMIGPSDGSTSYAQRFQGRVTMTRDTSTGTVYMELSSLRSEDTAVYYCARDTGDHFDYWGQGTLVTVSS
VL: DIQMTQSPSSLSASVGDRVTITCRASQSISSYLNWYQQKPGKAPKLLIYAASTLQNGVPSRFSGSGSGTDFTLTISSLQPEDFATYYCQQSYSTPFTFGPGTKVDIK
B9: G5(1D06) scFv (scFv, V domains shown)
VH: QVQLVQSGAEVKKPGASVKVSCKASGYTFTSYDINWVRQAPGQGLEWMGWINPNSGDTKYSQKFQGRVTMTRDTSTSTVYMELSSLRSEDTAVYYCARDGTRYYGMDVWGQGTTVTVSS
VL: not shown
B10: G5(4B01) scFv (scFv, V domains shown)
VH: QVQLVQSGAEVKKPGSSVKVSCKASGGTFSSYAISWVRQAPGQGLEWMGGIIPIVGTANYAQKFQGRVTITADESTSTAYMELSSLRSEDTAVYYCARGGSYYYYGMDVWGQGTTVTVSS
VL: not shown
B11: G5(3G08) scFv (scFv, V domains shown)
VH: QVQLVQSGAEVKKPGASVKVSCKASGYIFRNYPMHWVRQAPGQGLEWMGWINPDSGGTKYAQKFQGRVTMTRDTSTSTVYMELSSLRSEDTAVYYCARDNGVGVDYWGQGTLVTVSS
VL: B2 VL with S28G, T31N, W32Y, Y50A, S93I, F94T, V104L
B12: G5(2B10) scFv (scFv, V domains shown)
VH: QVQLVQSGAEVKKPGASVKVSCKASGGTFSSYAISWVRQAPGQGLEWMGWMNPDSGSTGYAQRFQGRVTMTRDTSTSTVYMELSSLRSEDTAVYYCARGHSSGWYYYYGMDVWGQGTTVTVSS
VL: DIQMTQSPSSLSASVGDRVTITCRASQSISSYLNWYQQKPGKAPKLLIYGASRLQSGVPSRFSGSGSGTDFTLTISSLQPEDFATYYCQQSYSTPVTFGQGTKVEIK
B13: G5(1E05) scFv (scFv, V domains shown)
VH: QVQLVQSGAEVKKPGASVKVSCKASGYTFTSYNMHWVRQAPGQGLEWMGWINPNSGGTNYAQKFQGRVTMTRDTSTSTVYMELSSLRSEDTAVYYCARDVMDVWGQGTTVTVSS
VL: B2 VL with S28G, T31N, W32Y, A34N, S91T, S93M, F94M
B14: G5(1C12) scFv (scFv, V domains shown)
VH: QVQLVQSGAEVKKPGSSVKVSCKASGGTFSNFGVSWLRQAPGQGLEWMGGIIPILGTANYAQKFQGRVTITADESTSTAYMELSSLRSEDTAVYYCATPTNSGYYGPYYYYGMDVWGQGTTVTVSS
VL: B2 VL with T31S, Y50A, S53T, F94I, Y96L, Q100G
notes: also called G5-P1C12
B15: G5(4E04) scFv (scFv, V domains shown)
VH: QVQLVQSGAEVKKPGASVKVSCKASGGTFSSYGISWVRQAPGQGLEWMGWINPNSGVTKYAQKFQGRVTMTRDTSTSTVYMELSSLRSEDTAVYYCARGDYYFDYWGQGTLVTVSS
VL: B2 VL with T31R, W32F, A34N, Y50G, S53R, L54P, F94T, Y96L
B16: G5(1B12) scFv (scFv, V domains shown)
VH: EVQLLESGGGLVQPGGSLRLSCAASGFTFSNSDMNWVRQAPGKGLEWVASISSSGGYINYADSVKGRFTISRDNSKNTLYLQMNSLRAEDTAVYYCAKVNWNDGPYFDYWGQGTLVTVSS
VL: B2 VL with T31S, Y50A, S91A, Y92N, Y96L, Q100G
B17: G5(3G05) scFv (scFv, V domains shown)
VH: QVQLVQSGAEVKKPGASVKVSCKASGYTFTNYYMHWVRQAPGQGLEWMGIINPSGGSTSYAQKFQGRVTMTRDTSTSTVYMELSSLRSEDTAVYYCARSWFGGFNYHYYGMDVWGQGTTVTVSS
VL: DIQMTQSPSSLSASVGDRVTITCQASEDISNHLNWYQQKPGKAPKLLIYDALSLQSGVPSRFSGSGSGTDFTLTISSLQPEDFATYYCQQANSFPFTFGPGTKVDIK
B18: G5(3G01) scFv (scFv, V domains shown)
VH: QVQLVQSGAEVKKPGASVKVSCKASGGTFSGYLVSWVRQAPGQGLEWMGWINPNSGGTNTAQKFQGRVTMTRDTSTSTVYMELSSLRSEDTAVYYCAREGYGMDVWGQGTTVTVSS
VL: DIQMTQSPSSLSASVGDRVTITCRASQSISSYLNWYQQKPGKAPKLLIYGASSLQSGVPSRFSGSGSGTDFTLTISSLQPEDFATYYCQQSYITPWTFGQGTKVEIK
B19: G5(4B02) scFv (scFv, V domains shown)
VH: QVQLVQSGAEVKKPGASVKVSCKASGYTFTGYYMHWVRQAPGQGLEWMGWMNPNIGNTGYAQKFQGRVTMTRDTSTSTVYMELSSLRSEDTAVYYCARGIADSGSYYGNGRDYYYGMDVWGQGTTVTVSS
VL: DIVMTQSPDSLAVSLGERATINCKTSQSVLYRPNNENYLAWYQQKPGQPPKLLIYQASIREPGVPDRFSGSGSGTDFTLTISSLQAEDVAVYYCQQYYTTPYTFGQGTKLEIK
B20: G5(1H11) scFv (scFv, V domains shown)
VH: EVQLLESGGGLVKPGGSLRLSCAASGFTFSDYYMSWVRQAPGKGLEWVSYISSSSSYTNYADSVKGRFTISRDDSKNTLYLQMNSLKTEDTAVYYCARDVVANFDYWGQGTLVTVSS
VL: EIVMTQSPATLSVSPGERATLSCRASQSVSSNLAWYQQKPGQAPRLLIYAASARASGIPARFSGSGSGTEFTLTISSLQSEDFAVYYCQQYGSWPRTFGQGTKVEIK

Each binder was assayed against HLA-A*02:01_… (HLA-PEPTIDE target G7), recombinant biotinylated complex (human, enzymatically biotinylated (BirA)) (assay: BLI, pHLA on sensor, Fab titrated, 1:1 model).

Binder	Kd [nM]	koff [s⁻¹]	kon [M⁻¹ s⁻¹]
B1	531	0.0543	104000
B2	532	0.0994	197000
B3	11.8	0.00212	185000

Each binder was assayed against HLA-A*02:01_… (HLA-PEPTIDE target G8), recombinant complex (human, enzymatically biotinylated (BirA) for screening and functional assays) (assay: BLI, pHLA on sensor, Fab titrated, 1:1 model).
Protocol: Binding affinity was assessed by bio-layer interferometry (BLI) using an Octet Qke (ForteBio). Briefly, biotinylated pHLA complexes in kinetics buffer were loaded onto streptavidin sensors for 300 seconds, at concentrations which gave the optimal nm shift response (approximately 0.6 nm) for each Fab at the highest concentration used. The ligand-loaded tips were subsequently equilibrated in the kinetics buffer for 120 seconds. The ligand-loaded biosensors were then dipped for 200 seconds in the Fab solution titrated into 2-fold dilutions. […] The dissociation step in the kinetics buffer was measured for 200 seconds. Data were analyzed using the ForteBio data analysis software using a 1:1 binding model.

Binder	Kd [nM]	koff [s⁻¹]	kon [M⁻¹ s⁻¹]
B4	178	0.0338	190000
B5	17.7	0.0013	75000
B6	286	0.0789	545000

Each binder was assayed against HLA-A*01:01_… (HLA-PEPTIDE target G10), recombinant biotinylated complex (human, enzymatically biotinylated (BirA)) (assay: scFv PPE ELISA).

Binder	fold selective binding to target pHLA over minipool of negative control pHLAs [fold]
B7	≥ 3
B8	≥ 3

These binders were tested against T1, HLA-B*35:01_… (HLA-PEPTIDE target G5), recombinant biotinylated complex (human, enzymatically biotinylated (BirA)) (assay: scFv PPE ELISA).
T1 construct: also called G5-pHLA

Binder	fold selective binding to target pHLA over minipool of negative control pHLAs [fold]
B9	≥ 3
B10	≥ 3
B11	≥ 3
B12	≥ 3
B13	≥ 3
B14	≥ 3
B15	≥ 3
B16	≥ 3
B17	≥ 3
B18	≥ 3
B19	≥ 3
B20	≥ 3
